Values joined by “and” are separate entries in the source; they are usually repeats but may differ in a detail not shown here. Equal values may be shown once.

B1: hSIRT2 (36-356 aa), purified, thrombin-digested (domain or fragment, human, UniProt Q8IXJ6 36-356, looked up)
chain: ADMDFLRNLFSQTLSLGSQKERLLDELTLEGVARYMQSERCRRVICLVGAGISTSAGIPDFRSPSTGLYDNLEKYHLPYPEAIFEISYFKKHPEPFFALAKELYPGQFKPTICHYFMRLLKDKGLLLRCYTQNIDTLERIAGLEQEDLVEAHGTFYTSHCVSASCRHEYPLSWMKEKIFSEVTPKCEDCQSLVKPDIVFFGESLPARFFSCMQSDFLKVDLLLVMGTSLQVQPFASLISKAPLSTPRLLINKEKAGQSDPFLGMIMGLGGGMDFDSKKAYRDVAWLGECDQGCLALAELLGWKKELEDLVRREHASIDAQS
B2: GST-TULP3 (60-442 aa, construct-2) (domain or fragment, human, UniProt O75386 60-442, looked up)
chain: AKPRASDEQTPLVNCHTPHSNVILHGIDGPAAVLKPDEVHAPSVSSSVVEEDAENTVDTASKPGLQERLQKHDISESVNFDEETDGISQSACLERPNSASSQNSTDTGTSGSATAAQPADNLLGDIDDLEDFVYSPAPQGVTVRCRIIRDKRGMDRGLFPTYYMYLEKEENQKIFLLAARKRKKSKTANYLISIDPVDLSREGESYVGKLRSNLMGTKFTVYDRGICPMKGRGLVGAAHTRQELAAISYETNVLGFKGPRKMSVIIPGMTLNHKQIPYQPQNNHDSLLSRWQNRTMENLVELHNKAPVWNSDTQSYVLNFRGRVTQASVKNFQIVHKNDPDYIVMQFGRVADDVFTLDYNYPLCAVQAFGIGLSSFDSKLACE
B3: deleted hTULP3 (60-442 aa, construct-2), GST tag removed (domain or fragment, human, UniProt O75386 60-442, looked up)
chain: B2 chain
B4: N-terminal hTULP3 (1-148 aa, construct-1), GST tag removed (domain or fragment, human, UniProt O75386 1-148, looked up)
chain: MEASRCRLSPSGDSVFHEEMMKMRQAKLDYQRLLLEKRQRKKRLEPFMVQPNPEARLRRAKPRASDEQTPLVNCHTPHSNVILHGIDGPAAVLKPDEVHAPSVSSSVVEEDAENTVDTASKPGLQERLQKHDISESVNFDEETDGISQ
B5: GST-tagged N-terminal hTULP3 (1-148 aa, construct-1) (domain or fragment, human, UniProt O75386 1-148, looked up)
chain: B4 chain

The target in data set [1] is B2. Briefly: SPR. On the technique in general: Surface plasmon resonance follows binding to a sensor surface in real time, without labels.
Data set [2] deals with T1, hSIRT1 (114-510 aa), purified, thrombin-digested (human, UniProt Q96EB6 114-510, NT-647 fluorescent dye (in the MST only)).
T1 sequence (looked up): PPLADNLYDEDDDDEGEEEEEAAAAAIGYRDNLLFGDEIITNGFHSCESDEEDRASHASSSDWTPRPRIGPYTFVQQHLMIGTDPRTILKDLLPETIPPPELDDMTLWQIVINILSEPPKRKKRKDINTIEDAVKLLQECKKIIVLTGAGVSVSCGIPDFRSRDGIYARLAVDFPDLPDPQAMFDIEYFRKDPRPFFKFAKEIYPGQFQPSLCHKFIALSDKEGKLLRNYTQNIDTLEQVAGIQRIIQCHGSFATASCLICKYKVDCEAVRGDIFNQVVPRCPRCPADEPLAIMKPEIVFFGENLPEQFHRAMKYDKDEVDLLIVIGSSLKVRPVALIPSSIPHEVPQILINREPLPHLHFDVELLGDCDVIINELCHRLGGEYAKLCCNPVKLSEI
Briefly: SPR.

The data set “native gel or EMSA” concerns the molecule itself. Briefly: native gel or EMSA. Background: In EMSA bound probe runs differently from free probe, usually more slowly.
In data set [3] the target is T1, hSIRT1 (114-510 aa), purified, …. The experiment in a line: MST.
The data set “SEC” deals with the molecule itself. Briefly: SEC. On the technique in general: In gel filtration, larger molecules generally elute earlier.
For data set [4], the target named is B1. Briefly: SPR.

In general, Kd refers to the free concentration of one partner at which half of the binding sites on the other are occupied at equilibrium, for simple one-to-one binding. High values mean a looser complex, low ones a tighter complex. Take B1: the Kd in data set [1] was 66.7 µM and 66.5 µM.

With B2, the Kd in data set [2] came out at 8.1 µM. A word on the stoichiometry N: it is a count of units in the complex or per binding partner. For the molecule B3, in the data set “native gel or EMSA”, the “stoichiometry N” value amounted to 2. B4 displayed a Kd in data set [3] of 28 µM. Also, the “stoichiometry N” value in the data set “SEC” came out at 2. B5: the binding result in data set [4] was “binds”.

(Values after doi:10.1101/2024.12.23.630205 (bioRxiv, 2024).)
